Reference: patent publication US20230272048A1

Key:
Assay in all cases: capture ELISA on Env of lysed AD8 pseudovirus, % of WT
[1] = molecular target: A329K (HIV-1)
[2] = molecular target: AD8 Env D279A (HIV-1 AD8, clade B)
[3] = molecular target: AD8 Env D368A (HIV-1 AD8, clade B)
[4] = molecular target: AD8 Env D457A (HIV-1 AD8, clade B)
[5] = molecular target: AD8 Env D474A (HIV-1 AD8, clade B)
[6] = molecular target: AD8 Env E370A (HIV-1 AD8, clade B)
[7] = molecular target: AD8 Env G366A (HIV-1 AD8, clade B)
[8] = molecular target: AD8 Env G471A (HIV-1 AD8, clade B)
[9] = molecular target: AD8 Env G473A (HIV-1 AD8, clade B)
[10] = molecular target: AD8 Env I371A (HIV-1 AD8, clade B)
[11] = molecular target: AD8 Env N332T (HIV-1 AD8, clade B)
[12] = molecular target: AD8 Env T455A (HIV-1 AD8, clade B)
[13] = molecular target: AD8 Env V372A (HIV-1 AD8, clade B)
[14] = molecular target: D185A (HIV-1)
[15] = molecular target: E87A (HIV-1)
[16] = molecular target: G472A (HIV-1)
[17] = molecular target: K121A (HIV-1)
[18] = molecular target: K282A (HIV-1)
[19] = molecular target: L179A (HIV-1)
[20] = molecular target: M373A (HIV-1)
[21] = molecular target: M475A (HIV-1)
[22] = molecular target: N197A (HIV-1)
[23] = molecular target: N262A (HIV-1)
[24] = molecular target: N276A (HIV-1)
[25] = molecular target: N283A (HIV-1)
[26] = molecular target: P369A (HIV-1)
[27] = molecular target: Q363A (HIV-1)
[28] = molecular target: R419A (HIV-1)
[29] = molecular target: R476A (HIV-1)
[30] = molecular target: S364A (HIV-1)
[31] = molecular target: S365A (HIV-1)
[32] = molecular target: AD8 Env G367A (HIV-1 AD8, clade B)
[33] = molecular target: P313A (HIV-1)

Substance | Env binding (%) at antibody EC50 [1] [%] | Env binding (%) at antibody EC50 [2] [%] | Env binding (%) at antibody EC50 [3] [%] | Env binding (%) at antibody EC50 [4] [%] | Env binding (%) at antibody EC50 [5] [%] | Env binding (%) at antibody EC50 [6] [%] | Env binding (%) at antibody EC50 [7] [%] | Env binding (%) at antibody EC50 [8] [%] | Env binding (%) at antibody EC50 [9] [%] | Env binding (%) at antibody EC50 [10] [%] | Env binding (%) at antibody EC50 [11] [%] | Env binding (%) at antibody EC50 [12] [%] | Env binding (%) at antibody EC50 [14] [%] | Env binding (%) at antibody EC50 [15] [%] | Env binding (%) at antibody EC50 [16] [%] | Env binding (%) at antibody EC50 [17] [%] | Env binding (%) at antibody EC50 [18] [%] | Env binding (%) at antibody EC50 [19] [%] | Env binding (%) at antibody EC50 [20] [%] | Env binding (%) at antibody EC50 [21] [%] | other results
PGT121 (antibody) | 53 | 103 | 79 | 108 | 81 | 74 | 80 | 75 | 80 | 80 | 8 | 92 | 81 | 73 | 78 | 84 | 78 | 87 | 90 | 84 | Env binding (%) at antibody EC50 [13]: 83%; Env binding (%) at antibody EC50 [22]: 65%; Env binding (%) at antibody EC50 [23]: 75%; Env binding (%) at antibody EC50 [24]: 97%; Env binding (%) at antibody EC50 [25]: 75%; Env binding (%) at antibody EC50 [26]: 74%; Env binding (%) at antibody EC50 [27]: 72%; Env binding (%) at antibody EC50 [28]: 82%; Env binding (%) at antibody EC50 [29]: 73%; Env binding (%) at antibody EC50 [30]: 82%; Env binding (%) at antibody EC50 [31]: 96%
b12 (antibody) | 51 | 86 | 21 | 57 | 70 | 54 | 47 | 88 | 96 | 73 | 66 | 114 | 63 | 99 | 93 | 95 | 96 | 41 | 111 | 103 | Env binding (%) at antibody EC50 [32]: 68%; Env binding (%) at antibody EC50 [22]: 69%; Env binding (%) at antibody EC50 [23]: 52%; Env binding (%) at antibody EC50 [24]: 86%; Env binding (%) at antibody EC50 [25]: 98%; Env binding (%) at antibody EC50 [33]: 95%; Env binding (%) at antibody EC50 [26]: 90%; Env binding (%) at antibody EC50 [27]: 77%; Env binding (%) at antibody EC50 [28]: 74%; Env binding (%) at antibody EC50 [29]: 79%; Env binding (%) at antibody EC50 [30]: 110%; Env binding (%) at antibody EC50 [31]: 64%
